Molecular target: H2A.Z(D97N/S98K)-containing nucleosome core particle with wild-type H4 (H4K20) (UniProt P06899 1-126; P68431 1-136; P62805 1-103)
Assay: MST

Kd: 219 nM
B1: SUV420H1(1–390), wild type, with N-terminal 6× His-TEV tag (domain or fragment)
chain: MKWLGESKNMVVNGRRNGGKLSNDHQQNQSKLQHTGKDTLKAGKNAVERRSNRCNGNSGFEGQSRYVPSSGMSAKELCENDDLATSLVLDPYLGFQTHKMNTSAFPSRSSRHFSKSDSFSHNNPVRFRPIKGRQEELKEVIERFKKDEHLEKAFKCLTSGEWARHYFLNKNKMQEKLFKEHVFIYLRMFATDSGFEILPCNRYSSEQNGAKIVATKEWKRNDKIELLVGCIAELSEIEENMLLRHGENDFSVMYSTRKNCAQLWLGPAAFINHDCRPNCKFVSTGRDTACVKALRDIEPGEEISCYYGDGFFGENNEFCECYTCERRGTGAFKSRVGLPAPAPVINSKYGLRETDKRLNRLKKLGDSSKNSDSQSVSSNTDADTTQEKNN
modifications: RED-tris-NTA dye on the His tag

— article PMC10697951 (2023)
